In article doi:10.1101/2020.07.19.211243:
Values joined by “and” are separate entries in the source; they are usually repeats but may differ in a detail not shown here. Equal values may be shown once. Read-outs that look alike come from different tables or passages of the source.

Key:
Experiment in all cases: SDS-PAGE
[1] = target: Daphnia pulex (water flea) sarcolamban peptide (Daphnia pulex)
[2] = target: Daphnia pulex (water flea) sarcolamban peptide (Daphnia pulex); remark: listed apart in the source
[3] = target: Triops cancriformis (tadpole shrimp) sarcolamban peptide (Triops cancriformis)

Daphnia pulex (water flea) sarcolamban peptide
stoichiometry N [1]: 3 and 4 and 5
stoichiometry N [2]: 2

Triops cancriformis (tadpole shrimp) sarcolamban peptide
stoichiometry N [3]: 2
